One experiment deals with T1, 14-3-3ζ (Homo sapiens, UniProt P63104).
T1 construct: gene YWHAZ; with ERα-derived phosphopeptide (similar Kd with TAZpS89 peptide)
T1 sequence (P63104 1-245): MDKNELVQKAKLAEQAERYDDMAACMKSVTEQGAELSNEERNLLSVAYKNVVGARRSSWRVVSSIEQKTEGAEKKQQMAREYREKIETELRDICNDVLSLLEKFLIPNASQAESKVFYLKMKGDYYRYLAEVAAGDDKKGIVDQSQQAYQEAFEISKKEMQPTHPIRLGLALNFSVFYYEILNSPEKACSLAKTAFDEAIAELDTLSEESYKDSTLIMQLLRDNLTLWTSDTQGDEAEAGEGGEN
T1 sequence (P03372 1-595 partner): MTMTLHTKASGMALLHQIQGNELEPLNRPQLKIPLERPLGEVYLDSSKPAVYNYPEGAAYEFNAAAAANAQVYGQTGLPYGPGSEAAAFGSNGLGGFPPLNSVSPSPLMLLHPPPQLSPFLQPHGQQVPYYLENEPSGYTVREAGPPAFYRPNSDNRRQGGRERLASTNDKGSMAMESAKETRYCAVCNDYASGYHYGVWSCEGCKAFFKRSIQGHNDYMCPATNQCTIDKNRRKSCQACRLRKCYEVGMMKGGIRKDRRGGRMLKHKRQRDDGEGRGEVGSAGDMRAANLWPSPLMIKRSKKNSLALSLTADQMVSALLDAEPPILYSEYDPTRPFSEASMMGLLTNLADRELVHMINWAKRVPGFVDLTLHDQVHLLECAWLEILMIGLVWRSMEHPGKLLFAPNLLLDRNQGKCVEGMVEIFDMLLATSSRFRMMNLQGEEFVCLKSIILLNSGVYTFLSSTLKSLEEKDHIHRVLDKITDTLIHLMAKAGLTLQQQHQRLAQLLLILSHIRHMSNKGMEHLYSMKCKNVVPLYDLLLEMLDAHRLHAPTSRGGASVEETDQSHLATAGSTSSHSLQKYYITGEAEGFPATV
Briefly: MST dose-response; also DSF and WaterLOGSY NMR with the TAZ peptide complex. The format is binding.

Experiment [1] concerns the target T2, 14-3-3ζ labelled with NT647-NHS dye (human, UniProt P63104 1-245, NT647-NHS dye (Monolith Protein Labeling Kit RED-NHS); labelled residues not stated).
T2 construct: Same construct as m1, with the fluorescent dye for MST; also called labeled 14-3-3ζ; source: E. coli BL21 (DE3), pProEX HTb plasmid, purified (Ni2+-NTA), labelled with Monolith Protein Labeling Kit RED-NHS
T2 sequence (looked up): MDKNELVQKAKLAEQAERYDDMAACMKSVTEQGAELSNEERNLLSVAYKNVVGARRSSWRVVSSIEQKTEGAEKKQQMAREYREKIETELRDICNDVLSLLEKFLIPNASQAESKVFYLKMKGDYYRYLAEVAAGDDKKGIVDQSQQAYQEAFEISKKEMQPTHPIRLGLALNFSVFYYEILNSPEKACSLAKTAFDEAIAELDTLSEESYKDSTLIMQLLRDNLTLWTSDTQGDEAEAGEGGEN
Briefly: MST; TAZpS89 peptide titrated against a fixed concentration of NT647-labelled 14-3-3ζ; DPBS with 0.05% Tween20, 25 °C; apparent Kd; presence of 1 mM fragment TCF199. Conditions: both partners purified.

Experiment [2] concerns the target T3, 14-3-3σΔC (C-terminally truncated after T231) (human, UniProt P31947 1-231).
T3 construct: also called 14-3-3sigma
T3 sequence (looked up): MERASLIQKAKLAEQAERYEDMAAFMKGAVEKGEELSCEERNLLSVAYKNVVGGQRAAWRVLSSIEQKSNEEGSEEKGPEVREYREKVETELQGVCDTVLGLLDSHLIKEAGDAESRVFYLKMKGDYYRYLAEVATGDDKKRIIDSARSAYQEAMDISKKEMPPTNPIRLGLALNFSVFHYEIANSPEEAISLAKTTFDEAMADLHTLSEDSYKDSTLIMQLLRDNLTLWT
In words: crystal structure; 14-3-3σΔC mixed 1:2 with the peptide, sitting drop, 0.095 M Hepes pH 7.5, PEG 400 26%, 0.19 M CaCl2, 5% glycerol; crystals soaked with 10 mM TCF199. Conditions: both partners purified.

Experiment [3] deals with T2, 14-3-3ζ labelled with NT647-NHS dye. Briefly: MST; TAZpS89 peptide titrated against a fixed concentration of NT647-labelled 14-3-3ζ; DPBS with 0.05% Tween20, 25 °C; apparent Kd; absence of fragment. Conditions: both partners purified.

Where no end group is shown, it is not given here. [ ]: non-standard residue; d: D form. pS = N[C@@H](COP(=O)(O)O)C(=O)O

At 14-3-3ζ, `O=C(Nc1ccccc1)OCC12CCCCC1NCCC2` (stereo not shown) [TCF199] displayed a Kd of 112000 ± 77000 nM.

B1: TAZpS89 peptide (peptide)
peptide: QHVRSH[pS]SPASLQ
notes: TAZ-derived peptide surrounding phosphorylated Ser89; The methods of crystallisation say only 'the peptide'; also called TAZ-derived peptide; TAZ peptide; source: synthetic peptide (bought: Caslo, Denmark)
As for B1, the Kd in experiment [1] turned out to be 40 nM; in experiment [3], 1380 nM. Moreover, the binding result in experiment [2] is given as “binds”.

The record behind these values is PMC11375770, “Fragment-Based Interrogation of the 14–3–3/TAZ Protein–Protein Interaction” (Biochemistry, 2024).
